Source: the RNAGym collection of RNA variant scans (doi:10.1093/nar/gkz1192)

B1: CPEB3 Ribozyme (parent)
chain: UAACAGGGGGCCACAGCAGAAGCGUUCACGUCGCAGCCCCUGUCAGAUUCUGGUGAAUCUGCGAAUUCUGCUGUAUAUCUC

Variants of: B1
Test: self-cleavage, relative activity (ratio to wild type); higher = more cleavage; in vitro, sequencing
In short: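 Barcoded CPEB3 ribozyme mutants, produced by rounds of error-prone PCR, self-cleaved while being transcribed with T7 RNA polymerase for 5 hours at 37°C and during a subsequent 15 min DNase I step before EDTA was added. Sequencing of template-switched cDNA on Illumina gave cleaved and total reads, and DNA sequencing assigned barcodes to variants. Each variant's relative activity is its cleaved/total read fraction divided by the unmutated ribozyme's fraction, averaged across three batches. A variant needed a minimum of 5 reads.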

Variant	self-cleavage
UAACAGGGGGCCACAGCAGAAGCGUUCACGUCGCAGCCUCUGUCAGAUUCUGGUGAAUCUGCGAAUUCUGCAGUAUAUCUC [C39U U72A]	0.98
UAACAGGGGGCCACAGCAGAAGCGUUCACGUCGCAGCCUCUGUCAGAUUCUGGUGAAUCUGCGAAUUCUGCCGUAUAUCUC [C39U U72C]	0.71
UAACAGGGGGCCACAGCAGAAGCGUUCACGUCGCAGCCUCUGUCAGAUUCUGGUGAAUCUGCGAAUUCUGCGGUAUAUCUC [C39U U72G]	1.06
UAACAGGGGGCCACAGCAGAAGCGUUCACGUCGCAGCCUCUGUCAGAUUCUGGUGAAUCUGCGAAUUCUGCUGAAUAUCUC [C39U U74A]	1.08
UAACAGGGGGCCACAGCAGAAGCGUUCACGUCGCAGCCUCUGUCAGAUUCUGGUGAAUCUGCGAAUUCUGCUGCAUAUCUC [C39U U74C]	1.1
UAACAGGGGGCCACAGCAGAAGCGUUCACGUCGCAGCCUCUGUCAGAUCCUGGUGAAUCUGCGAAUUCUGCUGUAUAUCUC [C39U U49C]	0.31
UAACAGGGGGCCACAGCAGAAGCGUUCACGUCGCAGCCUCUGUCAGAUUCUGGUGAAUCUGCGAAUCCUGCUGUAUAUCUC [C39U U67C]	0.21
UAACAGGGGGCCACAGCAGAAGCGUUCACGUCGCAGCCUCUGUCAGAUUCUGGUGAAUCUGCGAAUUCUGCUGUAUAUUUC [C39U C79U]	1.02
UAACAGGGGGCCACAGCAGAAGCGUUCACGUCGCAGCCUCUGUCAUAUUCUGGUGAAUCUGCGAAUUCUGCUGUAUAUCUC [C39U G46U]	0.11
UAACAGGGGGCCACAGCAGAAGCGUUCACGUCGCAGCCUCUGUCAGAUUCUGGUGAAUCAGCGAAUUCUGCUGUAUAUCUC [C39U U60A]	0.43
UAACAGGGGGCCACAGCAGAAGCGUUCACGUCGCAGCCUCUGUCAGAUUCUGGUGAAUCCGCGAAUUCUGCUGUAUAUCUC [C39U U60C]	0.39
UAACAGGGGGCCACAGCAGAAGCGUUCACGUCGCAGCCUCUGUCAGAUUCUGGUGAAUCUGCGAAUUCUGUUGUAUAUCUC [C39U C71U]	0.57
UAACAGGGGGCCACAGCAGAAGCGUUCACGUCGCAGCCUCUGUCAGAUUCUGGUGAAUCUGCGAAUUCUGCUGUGUAUCUC [C39U A75G]	0.97
UAACAGGGGGCCACAGCAGAAGCGUUCACGUCGCAGCCUCUGUCAGAUUCGGGUGAAUCUGCGAAUUCUGCUGUAUAUCUC [C39U U51G]	0.89
UAACAGGGGGCCACAGCAGAAGCGUUCACGUCGCAGCCUCUGUCAGAUUCAGGUGAAUCUGCGAAUUCUGCUGUAUAUCUC [C39U U51A]	1.06
UAACAGGGGGCCACAGCAGAAGCGUUCACGUCGCAGCCCAUGUCAGAUUCUGGUGAAUCUGCGAAUUCUGCUGUAUAUCUC [C40A]	0.28
UAACAGGGGGCCACAGCAGAAGCGUUCACGUCGCAGCCUCUGACAGAUUCUGGUGAAUCUGCGAAUUCUGCUGUAUAUCUC [C39U U43A]	1.12

Variant	self-cleavage
UAACAGGGGGCCACAGCAGAAGCGUUCACGUCGCAGCCUCUGCCAGAUUCUGGUGAAUCUGCGAAUUCUGCUGUAUAUCUC [C39U U43C]	0.35
UAACAGGGGGCCACAGCAGAAGCGUUCACGUCGCAGCCUCUGUCAGAUUCUGGUGAACCUGCGAAUUCUGCUGUAUAUCUC [C39U U58C]	0.3
UAACAGGGGGCCACAGCAGAAGCGUUCACGUCGCAGCCUCUGUCAGAUUCUGGUGAAUCUGCGAAUUCUGCUGUACAUCUC [C39U U76C]	1.08
UAACAGGGGGCCACAGCAGAAGCGUUCACGUCGCAGCCUCUGUCAGAUUCUGGUGAAUCUGCGAAUUCUGCUGUAUAACUC [C39U U78A]	0.89
UAACAGGGGGCCACAGCAGAAGCGUUCACGUCGCAGCCUCUGUCAGAUUCUGGUGAAUCUGCGAAUUCAGCUGUAUAUCUC [C39U U69A]	0.44
UAACAGGGGGCCACAGCAGAAGCGUUCACGUCGCAGCCUCUGUCAGAUUCUGGUGAAUCUGCGAAUUCCGCUGUAUAUCUC [C39U U69C]	0.32
UAACAGGGGGCCACAGCAGAAGCGUUCACGUCGCAGCCUCAGUCAGAUUCUGGUGAAUCUGCGAAUUCUGCUGUAUAUCUC [C39U U41A]	0.25
UAACAGGGGGCCACAGCAGAAGCGUUCACGUCGCAGCCUCUGUCAGAUUCUGGUGAAUCUGCGAAUUCUGCUGUAUGUCUC [C39U A77G]	0.83
UAACAGGGGGCCACAGCAGAAGCGUUCACGUCGCAGCCUCUGUCAGAUUCUGGUGAAUCUGCGAAUUCUGCUGUAUUUCUC [C39U A77U]	0.81
UAACAGGGGGCCACAGCAGAAGCGUUCACGUCGCAGCCCAUGUCCGAUUCUGGUGAAUCUGCGAAUUCUGCUGUAUAUCUC [C40A A45C]	0.23
UAACAGGGGGCCACAGCAGAAGCGUUCACGUCGCAGCCCAUGUCUGAUUCUGGUGAAUCUGCGAAUUCUGCUGUAUAUCUC [C40A A45U]	0.31
UAACAGGGGGCCACAGCAGAAGCGUUCACGUCGCAGCCCAUGUCGGAUUCUGGUGAAUCUGCGAAUUCUGCUGUAUAUCUC [C40A A45G]	0.26
UAACAGGGGGCCACAGCAGAAGCGUUCACGUCGCAGCCUCUGUCAGACUCUGGUGAAUCUGCGAAUUCUGCUGUAUAUCUC [C39U U48C]	0.42
UAACAGGGGGCCACAGCAGAAGCGUUCACGUCGCAGCCUCUGUCAGAUUCUGGUGAAUCUGCGAAUUCUGCUGUAUAUCCC [C39U U80C]	0.8
UAACAGGGGGCCACAGCAGAAGCGUUCACGUCGCAGCCUCUGUCAGAUUCUGGUGAAUCUGAGAAUUCUGCUGUAUAUCUC [C39U C62A]	0.35
UAACAGGGGGCCACAGCAGAAGCGUUCACGUCGCAGCCUCUGUCAGAUUCUGGUGAAUCUGCGAACUCUGCUGUAUAUCUC [C39U U66C]	0.37
UAACAGGGGGCCACAGCAGAAGCGUUCACGUCGCAGCCUCUGUCAGAUUCUGGAGAAUCUGCGAAUUCUGCUGUAUAUCUC [C39U U54A]	0.95
